# Results taken from US9096835B2, “DNA polymerase” (Medical Research Council, priority 2003, dated 2015).
# Where “and” joins values, the source holds several entries; their conditions need not be identical. Equal values may be shown once. Entries after “also recorded” stand apart in the source; their conditions may differ.
# Key:
# Type in all cases: biochemical
# [1] = tested on: primer-template duplex with matched or mismatched 3′ terminus; test: Steady-state extension kinetics, gel-based assay; conditions: incorporated base is dCTP
# Experimental: Kinetic parameters were determined using a gel-based assay essentially as described (16). Primers 15, 16, 17 (3′ base=G, C, A respectively) were ^32P-labeled and annealed to one of template strands 18, 19, 20 (template base=C, G, A respectively) or 21 (template base C different context). Duplex substrates were used at 50 nM final concentration in 1× Taq buffer with various concentrations of enzyme and dNTP. Reactions were carried out at 60° C. for times whereby <20% of primer-template was utilized at the highest concentration of dNTP.
# Extension and incorporation kinetics of M1 and M4 for a selection of mismatches were measured using a gel-based steady-state kinetic assay (Goodman) (Tables 1 & 2). M1 and M4 respectively extend a C•C mispair 390 and 75-fold more efficiently than wtTaq. […] The gain in extension efficiency derives predominantly from increased relative Vmax values for the mutant polymerases, while Km for nucleotide substrates remains largely unchanged. For most DNA polymerases the relative efficiency of extending a given mispair (f0ext) is similar to the relative efficiency of forming it (finc) (Goodman 1993, Goodman 1990, Washington 2001). Indeed, M1 and M4 respectively incorporate dCTP opposite template base C 206- and 29-fold more efficiently than wtTaq (Table 2).
# [2] = tested on: primers with 3′ transversion mismatches; test: Mismatch extension PCR assay; conditions: G•A, C•C, G•G mismatched primers
# Experimental: A PCR assay was used to screen and rank clones. Briefly, clones were normalized for activity in PCR with matched primers 3, 4 and activity with mismatched primers 1 and 2 (1 μM each) determined at minimal cycle number (15-25 cycles). Extension capability for different mismatches was determined by the same assay using mismatch primers 2 (C•C mismatch), 5 (A•A mismatch), 6 (G•G mismatch), 7 (G•A mismatch) with matched primer 3 or primer 1 (A•G mismatch) with matched primer 4. Incorporation of unnatural substrates in 50 cycle PCR was carried out using standard conditions and 50 μM […] dNTPs (Promega) or 50 μM FITC-12-dATP (Perkin-Elmer), Rhodamine-5-dUTP (Perkin-Elmer) or Biotin-16-dUTP (Roche) with equivalent amounts of the other 3 dNTPs (all 50 μM). Long PCR was carried out using a two-step cycling protocol as described (22) 94° C. for 2 minutes, followed by 20 cycles of (94° C. 15 sec, 68° C. 30 min) using 5 ng of phage λ DNA (New England Biolabs) template and either primers 9, 10, 11 with primer 12 or primer 13 with primers 10, 14.
# [3] = tested on: template containing an abasic site; test: Translesion replication assay (primer extension), abasic site; conditions: gel-extension assay, 60° C.
# Experimental: Template primers 22 (undamaged) or 23 (containing a synthetic abasic site) were synthesized by Lofstrand Laboratories (Gaithersburg, Md.). Template primer 24 (containing a single cis-syn thymine dimer), was synthesized as described (34). Primer 25 was ^32P-labeled and annealed to one of the three templates 22, 23, 24 (at a primer template ratio of molar 1:1.5) and extended in 40 mM Tris.HCl at pH 8.0, 5 mM MgCl2, 100 μM of each dNTP, 10 mM DTT, 250 μg/ml BSA, 2.5% glycerol, 10 nM primer-template DNA and 0.1 Unit of polymerase at 60° C. for various times.
# Primer extension assays were essentially as described in (Ghadessy et al., 2004). Briefly, undamaged oligonucleotides and a 51mer containing a synthetic abasic site were synthesized by Lofstrand Laboratories (Gaithersburg, Md.) using standard techniques and were gel purified prior to use. A 20mer primer (LES—20 P) with the sequence 5′-[…]-3′ (SEQ ID NO: 99) was 5′-labeled with [^32P]ATP (5000 Ci/mmole; 1 Ci=37 GBq) (Pharmacia) using T4 polynucleotide kinase (Invitrogen, Carlsbad Calif.). Radiolabeled primer-template DNAs were prepared by annealing the 5′[^32P] labeled 20mer primer to one of the two following 51mer templates (at a primer template ratio of molar 1:1.5). 1) undamaged DNA (UNDT51T); 5′-AGCTACCATGCCTGCACGAATTCGGCATCCGTCGCGACCACGGTCGCAGCG-3′ (SEQ ID NO: 100); 2) an oligo (LABA51T) containing a synthetic abasic site (indicated as an X in bold font); 5′-AGCTACCATGCCTGCACGACA XCG GCATCCGTCGCGACCACGGTCGCAGCG-3′ (SEQ ID NO: 101). Standard replication reactions of 10 contained 40 mM Tris.HCl at pH 8.0, 5 mM MgCl2, 100 μM of each ultrapure dNTP (Amersham Pharmacia Biotech, NJ), 10 mM DTT, 250 μg/ml BSA, 2.5% glycerol, 10 nM 5′[32P] primer-template DNA and 0.1 Unit of polymerase. After incubation at 60° C. for various times reactions were terminated by the addition of 10 μl of 95% formamide/10 mM EDTA and the samples heated to 100° C. for 5 min. Reaction mixtures (5 μl) were subjected to 20% polyacrylamide/7 M Urea gel electrophoresis and replication products visualized by PhosphorImager analysis.
# [4] = 3′-terminal base pair A · A (template base: 3′ primer base)
# [5] = 3′-terminal base pair A · G (template base: 3′ primer base)
# [6] = 3′-terminal base pair C · C (template base: 3′ primer base)
# [7] = 3′-terminal base pair C · G (template base: 3′ primer base), matched
# [8] = 3′-terminal base pair G · A (template base: 3′ primer base)
# [9] = 3′-terminal base pair G · G (template base: 3′ primer base)
Molecule,"Vmax [1, 4] [% Min^−1]",Km ([1]; 3′-terminal base pair A · A) [µM],"Ratio of fext, fext (mutant polymerase)/fext (wtTaq) ([1]; 3′-terminal base pair A · A)","fext, f (mismatched 3′terminus)/f (matched terminus) ([1]; 3′-terminal base pair A · A)","Vmax [1, 5] [% Min^−1]",Km ([1]; 3′-terminal base pair A · G) [µM],"Ratio of fext, fext (mutant polymerase)/fext (wtTaq) ([1]; 3′-terminal base pair A · G)","fext, f (mismatched 3′terminus)/f (matched terminus) ([1]; 3′-terminal base pair A · G)","Vmax [1, 6] [% Min^−1]",Km ([1]; 3′-terminal base pair C · C) [µM],"Ratio of fext, fext (mutant polymerase)/fext (wtTaq) ([1]; 3′-terminal base pair C · C)","fext, f (mismatched 3′terminus)/f (matched terminus) ([1]; 3′-terminal base pair C · C)","Km [1, 7] [µM]","Vmax [1, 7] [% Min^−1]","Vmax [1, 8] [% Min^−1]",Km ([1]; 3′-terminal base pair G · A) [µM],"Ratio of fext, fext (mutant polymerase)/fext (wtTaq) ([1]; 3′-terminal base pair G · A)","fext, f (mismatched 3′terminus)/f (matched terminus) ([1]; 3′-terminal base pair G · A)","Vmax [1, 9] [% Min^−1]",Km ([1]; 3′-terminal base pair G · G) [µM],also measured
"M1: Taq mutant G84A, D144G, K314R, E520G, F598L, A608V, E742G; SEQ ID NO: 1 (protein, Mutant Thermus aquaticus DNA polymerase) MRGMLPLFEPKGRVLLVDGHHLAYRTFHALKGLTTSRGEPVQAVYGFAKSLLKALKEDGDAVIVVFDAKAPSFRHEAYGGYKAARAPTPEDFPRQLALIKELVDLLGLARLEVPGYEADDVLASLAKKAEKEGYEVRILTADKGLYQLLSDRIHVLHPEGYLITPAWLWEKYGLRPDQWADYRALTGDESDNLPGVKGIGEKTARKLLEEWGSLEALLKNLDRLKPAIREKILAHMDDLKLSWDLAKVRTDLPLEVDFAKRREPDRERLRAFLERLEFGSLLHEFGLLESPKALEEAPWPPPEGAFVGFVLSRREPMWADLLALAAAAGGRVHRAPEPYKALRDLKEARGLLAKDLSVLALREGLGLPPGDDPMLLAYLLDPSNTTPEGVARRYGGEWTEEAGERAALSERLFANLWGRLEGEERLLWLYREVERPLSAVLAHMEATGVRLDVAYLRALSLEVAEEIARLEAEVFRLAGHPFNLNSRDQLERVLFDELGLPAIGKTEKTGKRSTSAAVLGALREAHPIVEKILQYRELTKLKSTYIDPLPDLIHPRTGRLHTRFNQTATATGRLSSSDPNLQNIPVRTPLGQRIRRAFIAEEGWLLVVLDYSQIELRVLAHLSGDENLIRVFQEGRDIHTETASWMFGVPREAVDPLMRRAAKTINFGVLYGMSAHRLSQELAIPYEEAQAFIERYFQSFPKVRAWIEKTLEEGRRRGYVETLFGRRRYVPDLEARVKSVRGAAERMAFNMPVQGTAADLMKLAMVKLFPRLEEMGARMLLQVHDELVLEAPKERAEAVARLAKEVMEGVYPLAVPLEVEVGIGEDWLSAKE",1.5,40.9,3.6,2.4 × 10^−6,44.6,280,6.2,1.3 × 10^−6,9.2,25.8,390,2.3 × 10^−5,0.02,308.0,2.4,22,13.3,7.2 × 10^−6,29.6,67,"Ratio of fext, fext (mutant polymerase)/fext (wtTaq) ([1]; 3′-terminal base pair G · G): 22.5; fext, f (mismatched 3′terminus)/f (matched terminus) ([1]; 3′-terminal base pair G · G): 2.9 × 10^−5; extension of 3′ transversion mismatches in PCR [2]: greatly increased ability to extend; also recorded: generate amplification products; abasic site bypass in primer extension [3]: able to extend past the lesion and to the end of the template; also recorded: capable of both insertion opposite the abasic site and lesion bypass"
"M4: Taq mutant D58G, R74P, A109T, L245R, R343G, G370D, E520G, N583S, E694K, A743P; SEQ ID NO 2 (protein, Mutant Thermus aquaticus DNA polymerase) MRGMLPLYEPKGRVLLVDGHHLAYRTFHALKGLTTSRGEPVQAVYGFAKSLLKALKEGGDAVIVVFDAKAPSFPHEAYGGYKAGRAPTPEDFPRQLALIKELVDLLGLTRLEVPGYEADDVLASLAKKAEKEGYEVRILTADKDLYQLLSDRIHVLHPEGYLITPAWLWEKYGLRPDQWADYRALTGDESDNLPGVKGIGEKTARKLLEEWGSLEALLKNLDRLKPAIREKILAHMDDLKLSWDRAKVRTDLPLEVDFAKRREPDRERLRAFLERLEFGSLLHEFGLLESPKALEEAPWPPPEGAFVGFVLSRKEPMWADLLALAAARGGRVHRAPEPYKALGDLKEARGLLAKDLSVLALREGLGLPPDDDPMLLAYLLDPSNTTPEGVARRYGGEWTEEAGERAALSERLFANLWGRLEGEERLLWLYREVERPLSAVLAHMEATGVRLDVAYLRALSLEVAEEIARLEAEVFRLAGHPFNLNSRDQLERVLFDELGLPAIGKTEKTGKRSTSAAVLGALREAHPIVEKILQYRELTKLKSTYIDPLPDLIHPRTGRLHTRFNQTATATGRLSSSDPNLQSIPVRTPLGQRIRRAFIAEEGWLLVALDYSQIELRVLAHLSGDENLIRVFQEGRDIHTETASWMFGVPREAVDPLMRRAAKTINFGVLYGMSAHRLSQELAIPYEEAQAFIKRYFQSFPKVRAWIEKTLEEGRRRGYVETLFGRRRYVPDLEARVKSVREPAERMAFNMPVQGTAADLMKLAMVKLFPRLEEMGARMLLQVHDELVLEAPKERAEAVARLAKEVMEGVYPLAVPLEVEVGIGEDWLSAKE",8.5,32.9,5.7,3.8 × 10^−6,50.0,259,7.0,1.5 × 10^−6,11.1,36.6,75 and 75.3,4.5 × 10^−6,0.012,817.0,7.5,29,7.0,3.8 × 10^−6,70.6,107,"Ratio of fext, fext (mutant polymerase)/fext (wtTaq) ([1]; 3′-terminal base pair G · G): 7.6; fext, f (mismatched 3′terminus)/f (matched terminus) ([1]; 3′-terminal base pair G · G): 9.7 × 10^−6; extension of 3′ transversion mismatches in PCR [2]: greatly increased ability to extend; also recorded: generate amplification products; abasic site bypass in primer extension [3]: able to extend past the lesion and to the end of the template"
